The record followed here is paper PMC12474298 (2025).

Experiment in all cases: FP
The target of experiment [1] is human importin α1 lacking the importin-β binding domain (hIMPα1ΔIBB) (human).
The target of experiment [2] is IMPα1 major site mutant D192K (human).
Experiment [3] concerns the target IMPα1 minor site mutant E396R (human).

Where no end group is shown, it is not given here.

B1: HaHV1 UL36h NLS peptide (residues 1491-1500), FITC/Ahx-labelled (peptide)
peptide: ETKKRRRILE
modifications: not fully specified (N-terminus); also: FITC/Ahx-labelled, position not given here
Turning to B1, the Kd (as a rule, the concentration at which binding is half-saturated) turned out to be 362 nM in experiment [1], 3550 nM in experiment [2] and 1760 nM in experiment [3].
